According to US20070154994A1 (NATIONAL RESEARCH COUNCIL OF CANADA, published 2007):
Where no end group is shown, it is not given here.

B1: MP-TβRIIIED-K5 fusion protein (receptor)
chain: GPEQKLISEEDLRQLRNPSGFQGQLDGNATFNMELYNTDLFLVPSPGVFSVAENEHVYVEVSVTKADQDLGFAIQTCFLSPYSNPDRMSDYTIIENICPKDDSVKFYSSKRVHFPIPHAEVDKKRFSFLFKSVFNTSLLFLHCELTLCSRKKGSLKLPRCVTPDDACTSLDATMIWTMMQNKKTFTKPLAVVLQVDYKENVPSTKDSSPIPPPPPQIFHGGRGGGGSGGGKVSALKEKVSALKEKVSALKEKVSALKEKVSALKEGGHHHHHH
notes: Secreted from HEK 293SF cells; also called Cterm-TβRIIIED-K5coil; K5 tagged TβRIIIED
B2: TβRIIED-K5 fusion protein (receptor)
chain: TIPPEQKLISEEDLLHVQKSVNNDMIVTDNNGAVKFPQLCKFCDVRFSTCDNQKSCMSNCSITSICEKPQEVCVAVWRKNDENITLETVCHDPKLPYHDFILEDAASPKCIMKEKKKPGETFFMCSCSSDECNDNIIFSEEYNTSNPDGGRGGGGSGGGKVSALKEKVSALKEKVSALKEKVSALKEKVSALKEGGHHHHHH
notes: Secreted from HEK 293SF cells; The monomer was separated from aggregates with a Centriprep 30; also called K5 coiled-tagged TβRIIED; monomeric TβRIIED-K5
B3: TβRIIED-E5 dimerized by K5ox (two TβRIIED-E5 to one K5ox) (receptor)
chain: TIPPEQKLISEEDLLHVQKSVNNDMIVTDNNGAVKFPQLCKFCDVRFSTCDNQKSCMSNCSITSICEKPQEVCVAVWRKNDENITLETVCHDPKLPYHDFILEDAASPKCIMKEKKKPGETFFMCSCSSDECNDNIIFSEEYNTSNPDGGRGGGGSGGGEVSALEKEVSALEKEVSALEKEVSALEKEVSALEKGGHHHHHH
peptide: CGGKVSALKEKVSALKEKVSALKEKVSALKEKVSALKE
modifications: N-terminal Cys oxidized, joining the two chains as a K5 covalent dimer
B4: TβRIIED-K5/TβRIIED-E5 coiled-coil induced dimer (receptor)
chain 1: B2 chain
chain 2: B3 chain
notes: Non-covalent dimer made by preincubating equimolar TβRIIED-K5 and TβRIIED-E5; also called TβRIIED-E5/TβRIIED-K5 dimer
B5: K5ox (peptide)
peptide: B3 peptide
modifications: also: covalent homodimer via oxidized N-terminal Cys
notes: Synthetic peptide oxidized in ammonium bicarbonate at pH 8.0; also called oxidized CGGK5 coil; K5 covalent dimer
B6: TβRIIED-E5 fusion protein (receptor)
chain: B3 chain
notes: Secreted from HEK 293SF cells; also called TβRII ED-E5 coil; E5 coiled-tagged TβRIIED

Experiments:
Recombinant human TGF-β1 [1] = target: T1, Recombinant human TGF-β1 (human, UniProt P01137 279-390); assay: SPR, TGF-β1 coupled, simple model, Kdapp
T1 construct: It was amine coupled to the CM5 chip in SPR and used at 10 pM in the luciferase assay; also called transforming growth factor-β1
T1 sequence (P01137 279-390 limits assumed): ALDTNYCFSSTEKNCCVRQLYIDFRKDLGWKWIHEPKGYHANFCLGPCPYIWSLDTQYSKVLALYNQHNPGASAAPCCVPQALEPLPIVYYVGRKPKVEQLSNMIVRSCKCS
Protocol: (§1) In FIG. 6A, different concentrations of MP-TβRIIIED-K5 monomeric fusion protein ranging from 62.5 nM to 500 nM were injected over 75 RUs of coupled TGF-β1 and over a control surface. The points are the resonance units obtained after data preparation as described in Example 2, and the solid lines represent the fit when integrating all the curves simultaneously using a rearrangement model. FIGS. 6B-6C show residuals from the fit of the interaction data using a rearrangement model (FIG. 6B) and a simple one-to-one model (FIG. 6C).
(§2) Surface plasmon resonance studies were performed using a BIACORE™ biosensor (see for example U.S. Pat. No. 6,165,335 and related patents) using a running buffer composed of HBS; 20 mM Hepes (pH 7.4),150 mM NaCl, 3.4 mM EDTA, and 0.05% Tween20 for diluting all the test analytes.

Recombinant human TGF-β1 [2] = target: T1, Recombinant human TGF-β1; assay: SPR, TGF-β1 coupled, simple model, kass#1
Protocol: as §1
(§3) Kinetic experiments were carried out at 25° C. with a flow rate of 100 μL/min. Different concentrations of MP-TβRIIIED-K5 (0 to 500 nM), or MP-TβRIIIED-mixed with equimolar concentrations of […] (0 to 150 nM), were randomly injected in duplicate over a TGF-β1 surface as well as over a control surface (150 μL injections), following which the analyte solution was replaced by buffer for at least 210 seconds. Regeneration of the sensor chip for subsequent injections was accomplished by two pulses of HCl (20 mM, 120 seconds), followed by an EXTRACLEAN procedure performed according to the BIACORE manual.

Recombinant human TGF-β1 [3] = target: T1, Recombinant human TGF-β1; assay: SPR, TGF-β1 coupled, simple model, Kdiss#1
Protocol: as §1, §2

Recombinant human TGF-β1 [4] = target: T1, Recombinant human TGF-β1; assay: SPR, TGF-β1 coupled, rearrangement model, Kdapp
Protocol: as §1, §3

Recombinant human TGF-β1 [5] = target: T1, Recombinant human TGF-β1; assay: SPR, TGF-β1 coupled, rearrangement model, kass#1
Protocol: as §1, §2

Recombinant human TGF-β1 [6] = target: T1, Recombinant human TGF-β1; assay: SPR, TGF-β1 coupled, rearrangement model, Kdiss#1
Protocol: as §1, §3

Recombinant human TGF-β1 [7] = target: T1, Recombinant human TGF-β1; assay: SPR, TGF-β1 coupled, simple model, Kd 1; simple model, Kd 1
Protocol: as §1, §2

Recombinant human TGF-β1 [8] = target: T1, Recombinant human TGF-β1; assay: SPR, TGF-β1 coupled, rearrangement model, rearrangement step
Protocol: as §1, §2

Recombinant human TGF-β1 [9] = target: T1, Recombinant human TGF-β1; assay: SPR, TGF-β1 coupled, rearrangement model, Kd 1 (initial binding step)
Protocol: as §1, §2

[10] = target: T2, Recombinant human TβRIIED, untagged (human, UniProt P37173 23-166); assay: SPR (BIACORE), untagged hTβRII ED (about 120 RU left) captured on the coupled anti hTGF-βRII antibody, MP-TβRIIIED-K5 injected
T2 construct: extracellular domain; Gift from Dr. Hinck; also called untagged hTβRII ED; untagged TβRIIED
T2 sequence (P37173 23-166): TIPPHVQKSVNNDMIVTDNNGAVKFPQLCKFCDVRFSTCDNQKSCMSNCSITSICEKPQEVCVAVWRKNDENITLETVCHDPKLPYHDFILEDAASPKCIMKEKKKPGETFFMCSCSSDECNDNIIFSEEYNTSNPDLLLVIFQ
Protocol: This study is also described in Example 2.
(§4) A solution of 0.1 M ethanolamine-HCl (pH 8.5, 35 μL) was then used to block the remaining activated carboxyl groups.
(§5) Three studies were then performed at a flow rate of 5 μL/min: [0183] […] [0184] […] [0185]

Recombinant human TGF-β1 [11] = target: T1, Recombinant human TGF-β1; assay: SPR, TGF-β1 coupled, two-to-one stoichiometry model, Kd 1 (first site)
Protocol: (§6) As described in Example 3, TGF-β1 was coupled to the biosensor surface (approximately 250 RUs) by a standard amino coupling procedure. […] After data preparation by the ‘double referencing’ method, the set of sensorgrams was globally fit using a kinetic model depicting the presence of two independent TβRIIED binding sites on the TGF-β1 molecule (two-to-one stoichiometry model).
(§7) Regeneration of the sensor chip for subsequent injections was accomplished by two pulses of HCl (20 mM, 120 seconds), followed by an EXTRACLEAN procedure performed according to the BIACORE manual.

Recombinant human TGF-β1 [12] = target: T1, Recombinant human TGF-β1; assay: SPR, TGF-β1 coupled, two-to-one stoichiometry model, Kd 2 (second site)
Protocol: as §6, §7

Recombinant human TGF-β1 [13] = target: T1, Recombinant human TGF-β1; assay: SPR, TGF-β1 coupled, two-to-one stoichiometry model, kass 1 (first site)
Protocol: as §6, §7

Recombinant human TGF-β1 [14] = target: T1, Recombinant human TGF-β1; assay: SPR, TGF-β1 coupled, two-to-one stoichiometry model, kass 2 (second site)
Protocol: as §6, §7

Recombinant human TGF-β1 [15] = target: T1, Recombinant human TGF-β1; assay: SPR, TGF-β1 coupled, two-to-one stoichiometry model, kdiss 1 (first site)
Protocol: as §6, §7

Recombinant human TGF-β1 [16] = target: T1, Recombinant human TGF-β1; assay: SPR, TGF-β1 coupled, two-to-one stoichiometry model, kdiss 2 (second site)
Protocol: as §6, §7

[17] = target: B6; assay: SPR (BIACORE), TβRIIED-E5 captured on the coupled anti hTGF-βRII antibody, TβRIIED-K5 injected at 50 nM
Protocol: as §4, §5

Recombinant human TGF-β1 [18] = target: T1, Recombinant human TGF-β1; assay: cell-based or functional assay
Recombinant human TGF-β1 [19] = target: T1, Recombinant human TGF-β1; assay: SPR, TGF-β1 coupled, avidity model, Kd 1
Protocol: as §7

Recombinant human TGF-β1 [20] = target: T1, Recombinant human TGF-β1; assay: SPR, TGF-β1 coupled, avidity model, kass#1
Protocol: (§8) Since TGF-β1 is a covalent dimer, and since TβRIIED was artificially dimerized through coiled-coil interactions, two scenarios of binding were evaluated. […] This corresponds to an overall one to one (dimer-to-dimer) stoichiometry model with a rearrangement step after the initial binding (rearrangement model).

Recombinant human TGF-β1 [21] = target: T1, Recombinant human TGF-β1; assay: SPR, TGF-β1 coupled, avidity model, Kdiss#1
Protocol: as §8

Recombinant human TGF-β1 [22] = target: T1, Recombinant human TGF-β1; assay: SPR, TGF-β1 coupled, rearrangement model (best fit), Kdapp
Recombinant human TGF-β1 [23] = target: T1, Recombinant human TGF-β1; assay: SPR, TGF-β1 coupled, rearrangement model (best fit), kass#1
Protocol: as §8

Recombinant human TGF-β1 [24] = target: T1, Recombinant human TGF-β1; assay: SPR, TGF-β1 coupled, rearrangement model (best fit), Kdiss#1
Recombinant human TGF-β1 [25] = target: T1, Recombinant human TGF-β1; assay: SPR, TGF-β1 coupled, rearrangement model, rearrangement step; remark: listed apart in the source
Protocol: as §8

Recombinant human TGF-β1 [26] = target: T1, Recombinant human TGF-β1; assay: SPR, TGF-β1 coupled, simple one-to-one model (poor fit), Kd 1
Protocol: as §7

Recombinant human TGF-β1 [27] = target: T1, Recombinant human TGF-β1; assay: SPR, TGF-β1 coupled, simple one-to-one model (poor fit), Kdapp
Protocol: as §7

Recombinant human TGF-β1 [28] = target: T1, Recombinant human TGF-β1; assay: SPR, TGF-β1 coupled, simple one-to-one model (poor fit), kass#1
Recombinant human TGF-β1 [29] = target: T1, Recombinant human TGF-β1; assay: SPR, TGF-β1 coupled, simple one-to-one model (poor fit), Kdiss#1
Recombinant human TGF-β1 [30] = target: T1, Recombinant human TGF-β1; assay: SPR, TGF-β1 coupled, rearrangement model, Kd 1 (initial binding step); remark: listed apart in the source
Protocol: as §8

Recombinant human TGF-β1 [31] = target: T1, Recombinant human TGF-β1; assay: SPR, TGF-β1 coupled, avidity model, second step; unit from footnote **
Protocol: as §7

[32] = target: B6; assay: inferred from SPR of TβRIIED-E5 (300 nM) preincubated with K5ox over coupled TGF-β1
Text: (§9) In another embodiment of the invention, an alternative approach to achieving coiled-coil induced dimerization of TβRIIED is provided. In this embodiment, a dimeric coil is used to act as an adaptor to bridge two proteins.
(§10) Regeneration of the sensor chip was done as described above.

Recombinant human TGF-β1 [33] = target: T1, Recombinant human TGF-β1; assay: SPR (BIACORE), TGF-β1 coupled, 300 nM TβRIIED-E5 alone; the pair is assigned by the fast wash-off that paragraph 133 gives for sensorgrams 1 and 4
Text: as §9, §10

## B1
Recombinant human TGF-β1 [1]
  Kd: 48 nM
Recombinant human TGF-β1 [2]
  kon: 50000 M⁻¹ s⁻¹
Recombinant human TGF-β1 [3]
  koff: 0.0025 s⁻¹
Recombinant human TGF-β1 [4]
  Kd: 86 nM
Recombinant human TGF-β1 [5]
  kon: 64000 M⁻¹ s⁻¹
Recombinant human TGF-β1 [6]
  koff: 0.044 s⁻¹
Recombinant human TGF-β1 [7]
  Kd: 49 nM
Recombinant human TGF-β1 [8]
  kd 2 (no unit): 0.15 no unit
Recombinant human TGF-β1 [9]
  Kd: 670 nM
[10]
  binding result: no binding (tested: 200 nM)

## B2
Recombinant human TGF-β1 [11]
  Kd: 90 nM
Recombinant human TGF-β1 [12]
  Kd: 1250 nM
Recombinant human TGF-β1 [13]
  kon: 365000 M⁻¹ s⁻¹
Recombinant human TGF-β1 [14]
  kon: 1900 M⁻¹ s⁻¹
Recombinant human TGF-β1 [15]
  koff: 0.033 s⁻¹
Recombinant human TGF-β1 [16]
  koff: 0.0026 s⁻¹
[17]
  binding result: binds

## B3
Recombinant human TGF-β1 [18]
  IC50 for inhibition of signaling (luciferase, MLEC cells): ~30 nM
  IC50 of TβRIIED-E5 in the presence of 150 nM K5ox (luciferase, MLEC cells): 53 nM

## B4
Recombinant human TGF-β1 [19]
  Kd: 330 nM
Recombinant human TGF-β1 [20]
  kon: 213000 M⁻¹ s⁻¹
Recombinant human TGF-β1 [21]
  koff: 0.071 s⁻¹
Recombinant human TGF-β1 [22]
  Kd: 1.5 nM
Recombinant human TGF-β1 [23]
  kon: 1.19e+06 M⁻¹ s⁻¹
Recombinant human TGF-β1 [24]
  koff: 0.11 s⁻¹
Recombinant human TGF-β1 [25]
  Kd 2 (no unit): 0.0166 no unit
Recombinant human TGF-β1 [26]
  Kd: 0.33 nM
Recombinant human TGF-β1 [27]
  Kd: 0.33 nM
Recombinant human TGF-β1 [28]
  kon: 640000 M⁻¹ s⁻¹
Recombinant human TGF-β1 [29]
  koff: 0.00021 s⁻¹
Recombinant human TGF-β1 [30]
  Kd: 92 nM
Recombinant human TGF-β1 [31]
  Kd 2: 370 nM

## B5
[32]
  binding result: binds

## B6
Recombinant human TGF-β1 [33]
  binding result: binds
